Data taken from patent publication US6107104A, “Modulators of anchoring protein function” (ICOS Corporation, priority 1996, dated 2000).

Tested on: PKC
Test: PKC activity assay with EGF receptor peptide substrate
Format: biochemical
Experimental: In order to asses the ability of these peptides to modulate PKC activity, the following assay was performed in the presence and absence of AKAP 79 peptide fragments. PKC [50 nM dissolved in 50 mM tris-HCl (pH 7.4), 5 mM MgCl2 1.2 mM CaCl2, 1 mM DTT, 1 mM EGTA and 100 μg/ml PS] was incubated with EGF receptor peptide substrate (5 μM) at 30° C. for five minutes. Phosphorylation reaction was initiated by addition of 100 μM ^32 P-ATP (500 cpm/pmol) and the reaction allowed to proceed for ten minutes at 30° C. Aliquots of reaction mixture were removed and spotted into P81 filter paper and the reaction terminated by washing the filter paper with excess 75 mM phosphoric acid (three washes for three minutes each). After a final wash in ethanol, the p81 filters were dried and radioactivity was measured by liquid scintillation counting.

- effect of incubation with CaM on inhibition of PKC (CaM 15 μM, excess Ca2+): prevented inhibition
- IC50 (read-out: IC50 of inhibition of PKC activity): 25 ± 5 nM
B1: recombinant fragment to the first 75 amino acids of AKAP 79: recombinant fragment of AKAP 79, amino acids 1-75 (protein, UniProt P24588 1-75, looked up, fragment)
chain: METTISEIHVENKDEKRSAEGSPGAERQKEKASMLCFKRRKKAAKALKPKAGSEAADVARKCPQEAGASDQPEPT
